In patent publication US20250129155A1 (INNOBATION BIO, published 2025):
Residue numbers refer to the chain shown, from its start.

B1: Hu3A5(V1) antibody (antibody, V domains shown)
VH: EVQLVQSGAEVKKPGASVKVSCKASGYTFTSYWMHWMRQAPGQGLEWIGVIDPSDSYTSYNQKFQGRVTLTVDTSTSTAYMELSSLRSEDTAVYYCARGGKRAMDYWGQGTTVTVSS
VL: DVVMTQSPLSLPVTLGQPASISCRSSQSLVHSNGNTYLHWFQQRPGQSPRLLIYKVSNRFSGVPDRFSGSGSGTDFTLKISRVEAEDVGVYFCSQSTHVPFTFGGGTKLEIK
B2: Hu3A5 (V3) antibody (antibody, V domains shown)
VH: B1 VH
VL: DVVMTQSPDSLAVSLGERATINCKSSQSLVHSNGNTYLHWYQQKPGQPPKLLIYKVSNRFSGVPDRFSGSGSGTDFTLTISSLQAEDVAVYFCSQSTHVPFTFGGGTKLEIK
B3: Hu3A5 (V9) antibody (antibody, V domains shown)
VH: EVQLVQSGSELKKPGASVKVSCKASGYTFTSYWMHWMRQAPGQGLEWIGVIDPSDSYTSYNQGFTGRFVLSVDTSVSTAYLQISSLKAEDTAVYYCARGGKRAMDYWGQGTTVTVSS
VL: B1 VL
B4: Hu3A5(V13) antibody (antibody, V domains shown)
VH: B3 VH with E1Q, H35N, M37V, I48M, L70F
VL: B1 VL
B5: Hu3A5(V10) antibody (antibody, V domains shown)
VH: B3 VH
VL: B1 VL with F92Y
notes: also called humanized 3A5(V10) antibody; humanized Hu3A5(V10) antibody
B6: Hu3A5(V14) antibody (antibody, V domains shown)
VH: B3 VH with E1Q, H35N, M37V, I48M, L70F
VL: B1 VL with F92Y
B7: Hu3A5 (V7) antibody (antibody, V domains shown)
VH: B1 VH with E1Q, M37V, I48M, L70M
VL: B2 VL
B8: Hu3A5 (V4) antibody (antibody, V domains shown)
VH: B1 VH
VL: B2 VL with F92Y
B9: Hu3A5 (V5) antibody (antibody, V domains shown)
VH: B1 VH with E1Q, M37V, I48M, L70M
VL: B1 VL
B10: Hu3A5 (V2) antibody (antibody, V domains shown)
VH: B1 VH
VL: B1 VL with F92Y
B11: Hu3A5 (V6) antibody (antibody, V domains shown)
VH: B1 VH with E1Q, M37V, I48M, L70M
VL: B1 VL with F92Y
B12: Hu3A5 (V8) antibody (antibody, V domains shown)
VH: B1 VH with E1Q, M37V, I48M, L70M
VL: B2 VL with F92Y
B13: Hu3A5(V11) antibody (antibody, V domains shown)
VH: B3 VH
VL: B2 VL
B14: Hu3A5(V16) antibody (antibody, V domains shown)
VH: B3 VH with E1Q, H35N, M37V, I48M, L70F
VL: B2 VL with F92Y
B15: Hu3A5(V12) antibody (antibody, V domains shown)
VH: B3 VH
VL: B2 VL with F92Y
B16: Hu3A5(V15) antibody (antibody, V domains shown)
VH: B3 VH with E1Q, H35N, M37V, I48M, L70F
VL: B2 VL

Molecular target: CD47 on CD47-overexpressing breast cancer cell line MCF-7 (UniProt Q08722)
Sequence (Q08722 19-323 limits assumed): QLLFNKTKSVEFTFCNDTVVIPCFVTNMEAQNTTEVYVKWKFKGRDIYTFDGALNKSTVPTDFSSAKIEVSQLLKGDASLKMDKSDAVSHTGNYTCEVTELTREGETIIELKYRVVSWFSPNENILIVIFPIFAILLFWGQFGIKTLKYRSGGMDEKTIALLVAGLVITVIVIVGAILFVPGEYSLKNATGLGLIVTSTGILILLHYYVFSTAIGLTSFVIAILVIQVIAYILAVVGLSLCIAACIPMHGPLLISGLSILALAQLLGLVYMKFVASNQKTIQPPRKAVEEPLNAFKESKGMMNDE
Assay: flow cytometry on MCF-7 cells, secondary antibody alone (background control)

| Molecule | Mean | Median |
| --- | --- | --- |
| PE-conjugated goat anti-mouse IgG antibody (Biolegend Inc., cat #405307) | 80 | 73.9 |

Molecular target: T1, CD47 protein (Acrobiosystems, cat #CD7-HA2E9) (UniProt Q08722 19-139)
T1 construct: Bought recombinant protein coated on the ELISA plate at 100 ng/well; also called CD47 antigen; CD47 peptide
T1 sequence (Q08722 19-139 limits assumed): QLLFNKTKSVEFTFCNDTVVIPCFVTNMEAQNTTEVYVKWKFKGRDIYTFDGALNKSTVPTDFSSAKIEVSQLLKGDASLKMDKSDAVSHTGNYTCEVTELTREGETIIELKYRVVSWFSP
Assay: ELISA, CD47 protein coated 100 ng/well, 0.8 µg antibody per well
Procedure: The purified 0.8 μg humanized antibody was treated in each well, and then reacted at room temperature for 2 hours, and then washed 3 times with 1×PBST. Secondary antibody ([…], 1:5,000) was treated and reacted at room temperature for 30 minutes, washed 3 times with 1×PBST, and then treated with TMB for color development and reacted at room temperature for 5 minutes. Finally, the reaction was terminated by treatment with a stop solution of 1 N H₂SO₄, and then the absorbance was measured at 450 nm.

| Molecule | OD450 measurements [OD450] |
| --- | --- |
| B1 | 2.58 |
| B2 | 2.54 |
| B3 | 2.65 |
| B4 | 0.0966 |
| B5 | 2.81 |
| B6 | 0.147 |
| B7 | 2.67 |
| B8 | 2.74 |
| B9 | 2.57 |
| B10 | 2.69 |
| B11 | 2.62 |
| B12 | 2.45 |
| B13 | 2.81 |
| B14 | 0.106 |
| B15 | 2.85 |
| B16 | 0.111 |

Molecular target: CD47 on CD47-overexpressing breast cancer cell line MCF-7 (UniProt Q08722)
Assay: flow cytometry on MCF-7 cells, PE anti-human CD47, 5 µl

| Molecule | Mean | Median |
| --- | --- | --- |
| CD47 antibody (Biolegend PE anti-human CD47, cat #323108) | 11900 | 11000 |
